In US20190263931A1 (IMMUNOMETABOLISM DEVELOPMENT, published 2019):

T1: human MCT1 (monocarboxylate transporter 1, SLC16A1) (human, UniProt P53985 1-500)
T1 construct: Multipass membrane transporter; also called human MCT1 protein
T1 sequence: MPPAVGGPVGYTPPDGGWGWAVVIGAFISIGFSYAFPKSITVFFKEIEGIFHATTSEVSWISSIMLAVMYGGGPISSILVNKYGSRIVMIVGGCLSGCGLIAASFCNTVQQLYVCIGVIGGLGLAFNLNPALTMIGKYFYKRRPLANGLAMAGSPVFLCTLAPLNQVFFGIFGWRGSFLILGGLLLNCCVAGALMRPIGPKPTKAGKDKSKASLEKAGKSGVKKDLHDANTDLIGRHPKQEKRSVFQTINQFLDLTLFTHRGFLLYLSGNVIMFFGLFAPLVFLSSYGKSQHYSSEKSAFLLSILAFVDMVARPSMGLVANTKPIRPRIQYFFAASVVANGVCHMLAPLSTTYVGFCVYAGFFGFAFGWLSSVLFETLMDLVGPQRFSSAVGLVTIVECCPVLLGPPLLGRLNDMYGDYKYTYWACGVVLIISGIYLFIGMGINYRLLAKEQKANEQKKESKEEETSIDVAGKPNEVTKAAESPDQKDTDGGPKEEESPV

T2: rat MCT1 (rat, UniProt P53987 1-494)
T2 construct: whole, on cells; also called rodent MCT1
T2 sequence (looked up): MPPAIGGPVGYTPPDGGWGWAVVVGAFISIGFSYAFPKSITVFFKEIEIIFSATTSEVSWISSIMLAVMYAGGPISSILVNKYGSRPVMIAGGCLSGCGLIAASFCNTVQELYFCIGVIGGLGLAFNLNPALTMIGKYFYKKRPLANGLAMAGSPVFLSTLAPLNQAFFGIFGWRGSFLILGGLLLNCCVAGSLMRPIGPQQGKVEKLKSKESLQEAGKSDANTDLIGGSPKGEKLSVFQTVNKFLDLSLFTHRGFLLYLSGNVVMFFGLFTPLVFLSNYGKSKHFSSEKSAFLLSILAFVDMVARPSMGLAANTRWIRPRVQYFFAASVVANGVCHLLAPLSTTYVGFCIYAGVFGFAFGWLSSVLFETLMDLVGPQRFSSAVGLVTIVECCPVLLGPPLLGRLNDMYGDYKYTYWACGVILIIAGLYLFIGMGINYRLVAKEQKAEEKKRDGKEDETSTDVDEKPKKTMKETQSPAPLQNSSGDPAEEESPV


How the values were obtained:
[1] = biological target: T1, human MCT1 (monocarboxylate transporter …); test: Kinetic Exclusion Assay (KinExA)
[2] = biological target: T2, rat MCT1; test: flow cytometry, rat PBMC (live gate), resting and stimulated
[3] = biological target: T1, human MCT1 (monocarboxylate transporter …); test: flow cytometry, MFI on 293T WT (MCT1+ 293) cells, full Mabs

Row | Kd [1] | binding result [2] | binding result [3] | Binder
1 | 6.3 nM | no binding | – | MCT1 Ab1 (antibody, V domains shown, also called INX310; Rat Anti-MCT1 antibody) VH: QVQLKATGPGLVQPTQTLSITCTVSGFSLTNYHLQWVRQTPGKGLEWMGFIRSSGNTEYNSEFKSRLSISRDTSKNQVFLKMNSLKTDDTGVYYCARNSWYHGTYYSPGYYVMDAWGQGASVTVSS VL: NIHLTQSPSLLSASVGDRVTLSCKGSQNINNYLAWFQQKFGETPKLLIYNRHNLQTGIPSRFSGSGSGTDYTLTINSLQPEDVATYFCYQYSDGYTFGAGTKLELK
2 | – | – | no binding | LM-187 (antibody, V domains shown) VH: AVTLDESGGGLQTPGGLVSLVCKASGFGFTNYEIHWVRQAPGKGLEWVGFVSSGGAYADYAPAVKGRATITRDNGQSTVRLQLVNLRAEDTGTYYCTRAPCGSWCGWGYTGVDNIDAWGHGTEVIVSS VL: ALTQPSSVSANPGGIVKITCSGGGRGSHYGWYQQKSPGSAPVTLIYANNQRPSDIPSRFSGSESGSTATLTITGVQAEDEAVYFCGGYDSGATFGAGTTLTVL
